The target of this assay is Full-length HA-tagged PTPN12 (human) (UniProt Q05209). The experiment in a line: co-IP; Hek293 cells co-transfected with HA-PTPN12 and GFP-tagged FlnAs; 500 µg lysate in NETF buffer, 6 µg anti-HA 2 h at 4 °C, protein A beads; immunoblot. For orientation: Immunoblotting shows a protein as a band on a membrane.
UniProt Q05209, sequence (Q05209 whole entry): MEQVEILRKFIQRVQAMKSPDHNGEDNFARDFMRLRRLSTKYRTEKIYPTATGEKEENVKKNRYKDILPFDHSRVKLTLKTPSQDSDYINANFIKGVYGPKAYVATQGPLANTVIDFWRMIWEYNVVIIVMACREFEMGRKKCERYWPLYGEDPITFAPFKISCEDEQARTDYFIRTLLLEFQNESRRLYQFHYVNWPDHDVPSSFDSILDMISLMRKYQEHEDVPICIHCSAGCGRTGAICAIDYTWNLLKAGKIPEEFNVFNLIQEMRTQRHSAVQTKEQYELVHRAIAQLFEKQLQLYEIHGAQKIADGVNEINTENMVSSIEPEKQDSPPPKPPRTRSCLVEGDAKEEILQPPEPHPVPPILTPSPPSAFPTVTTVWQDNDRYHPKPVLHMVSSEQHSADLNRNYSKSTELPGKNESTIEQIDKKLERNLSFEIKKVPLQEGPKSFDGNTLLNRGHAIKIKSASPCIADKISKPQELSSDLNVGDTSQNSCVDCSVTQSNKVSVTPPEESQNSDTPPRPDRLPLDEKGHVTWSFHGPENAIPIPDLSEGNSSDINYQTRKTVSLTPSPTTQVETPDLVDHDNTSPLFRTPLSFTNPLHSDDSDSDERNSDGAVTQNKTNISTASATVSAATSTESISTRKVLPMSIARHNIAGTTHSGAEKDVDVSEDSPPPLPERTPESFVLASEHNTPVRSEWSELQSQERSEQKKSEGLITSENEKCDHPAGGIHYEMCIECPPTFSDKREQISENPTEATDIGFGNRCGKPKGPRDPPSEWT

GFP-tagged-FlnA-G288R, P21333 1-2647 had a reduction of the FlnA co-immunoprecipitated with respect to FlnA-WT of over 60%.

As to GFP-tagged-FlnA-P637Q, P21333 1-2647, the reduction of the FlnA co-immunoprecipitated with respect to FlnA-WT was over 60%.

The values above are taken from paper PMC4654411.
